# Laboratory results from patent US9879060B2, “SV82 polypeptide, and cosmetic composition for reducing skin wrinkles and maintaining skin elasticity comprising SV82 polypeptide as active ingredient” (NEXGEN BIOTECHNOLOGIES, INC., priority 2015, dated 2018).
# System: Human dermal fibroblast adult (HDFa) cells
# Assay: Cell proliferation of HDFa by crystal violet staining
# Format: cell-based
# Details: 0.02 or 0.2 ppm, 3 days at 37° C., compared to a control (FIG. 5)
# Description: Human dermal fibroblast adult (HDFa) cells, which had been cultured to evaluate the activity of SV82 polypeptide that has been separated and purified in Example 2, were treated with SV82 polypeptide having a concentration of 0, 0.02 ppm or 0.2 ppm, and then incubated for 3 days at a temperature of 37° C. Thereafter, the cells were stained by crystal violate staining to identify whether the cells had proliferated.
molecule,measurement,value
"SV82 polypeptide (protein, SV82) MKYLLPTAAAGLLLLAAQPAMARATCAGQDQPCKETCDCCGERGECVCGGPCICRQGYFWIAWYKLANCKKLEHHHHHH",cell proliferation of HDFa (crystal violet staining),the more HDFa cells proliferate
